In the Immune Epitope Database (IEDB):

Columns and labels:
HLA-B*40:01 [1] = experiment: IEDB peptide-MHC binding, purified MHC/competitive/fluorescence; filed as Kd, often an IC50 or EC50 that approximates it; ≥ and ≤ were set here for values at or beyond the usual limits of such assays
HLA-B*39:01 = experiment: as above; settings: source organism: Yersinia pestis Nepal516
HLA-A*02:01 [2] = experiment: as above; settings: source organism: Yersinia pestis Nepal516
HLA-A*11:01 = experiment: IEDB peptide-MHC binding, purified MHC/direct/fluorescence; filed as Kd, often an IC50 or EC50 that approximates it; ≥ and ≤ were set here for values at or beyond the usual limits of such assays
HLA-B*40:01 [3] = experiment: as above
HLA-B*07:02 = experiment: as above
HLA-A*26:01 = experiment: as above
HLA-A*24:02 = experiment: as above
HLA-B*08:01 = experiment: as above
HLA-B*15:01 [4] = experiment: as above
HLA-A*31:01 = experiment: as above
HLA-A*02:01 [5] = experiment: as above
HLA-A*01:01 [6] = experiment: as above
HLA-B*18:01 = experiment: as above
HLA-B*46:01 = experiment: as above
HLA-B*15:09 = experiment: as above; settings: source organism: Influenza A virus(A/swine/Henan/8/2004(H9N2))
HLA-A*69:01 = experiment: as above
HLA-B*44:02 = experiment: as above
HLA-B*58:01 [7] = experiment: as above
HLA-B*27:05 [8] = experiment: as above
HLA-A*03:01 = experiment: as above
HLA-A*02:01 [9] = experiment: IEDB peptide-MHC binding, purified MHC/competitive/radioactivity; ≥ and ≤ were set here for values at or beyond the usual limits of such assays
HLA-A*02:01 [10] = experiment: IEDB peptide-MHC binding, purified MHC/competitive/fluorescence; ≥ and ≤ were set here for values at or beyond the usual limits of such assays
HLA-A*01:01 [11] = experiment: as above
HLA-B*35:01 [12] = experiment: IEDB peptide-MHC binding, purified MHC/direct/fluorescence; filed as Kd, often an IC50 or EC50 that approximates it; ≥ and ≤ were set here for values at or beyond the usual limits of such assays
HLA-B*08:02 = experiment: as above
HLA-A*24:03 [13] = experiment: as above; settings: source organism: Rickettsia prowazekii
HLA-B*15:01 [14] = experiment: IEDB peptide-MHC binding, purified MHC/competitive/fluorescence; ≥ and ≤ were set here for values at or beyond the usual limits of such assays; settings: source organism: Vaccinia virus
HLA-A*24:03 [15] = experiment: IEDB peptide-MHC binding, purified MHC/competitive/fluorescence; filed as Kd, often an IC50 or EC50 that approximates it; ≥ and ≤ were set here for values at or beyond the usual limits of such assays; settings: source organism: Escherichia coli str. K-12 substr. MG1655
HLA-A*30:01 = experiment: IEDB peptide-MHC binding, purified MHC/direct/fluorescence; filed as Kd, often an IC50 or EC50 that approximates it; ≥ and ≤ were set here for values at or beyond the usual limits of such assays; settings: source organism: Escherichia coli
HLA-B*48:01 = experiment: IEDB peptide-MHC binding, purified MHC/competitive/fluorescence; filed as Kd, often an IC50 or EC50 that approximates it; ≥ and ≤ were set here for values at or beyond the usual limits of such assays
HLA-B*27:05 [16] = experiment: as above; settings: source organism: Mammarenavirus juninense
HLA-B*35:01 [17] = experiment: as above; settings: source organism: Shigella boydii CDC 3083-94
HLA-B*58:01 [18] = experiment: as above; settings: source organism: Shigella boydii CDC 3083-94
HLA-C*15:02 = experiment: IEDB peptide-MHC binding, purified MHC/direct/fluorescence; filed as Kd, often an IC50 or EC50 that approximates it; ≥ and ≤ were set here for values at or beyond the usual limits of such assays; settings: source organism: Mycobacterium tuberculosis variant bovis
HLA-C*12:03 = experiment: as above; settings: source organism: Mycobacterium tuberculosis variant bovis
HLA-C*05:01 = experiment: as above; settings: source organism: Mycobacterium tuberculosis variant bovis
[19] = source organism: Influenza A virus (A/duck/Korea/S10/03(H3N2))
[20] = source organism: Vibrio parahaemolyticus
[21] = source organism: Influenza A virus (A/South Carolina/1/1918(H1N1))
[22] = source organism: Rickettsia prowazekii
[23] = source organism: Escherichia coli
[24] = source organism: Shigella dysenteriae
[25] = source organism: Zaire ebolavirus
[26] = source organism: Giardia lamblia ATCC 50803

Sequence: TQFGVPFVL
- Kd (HLA-B*40:01 [1]; source organism: Yersinia pestis Nepal516): 0.205 µM
- Kd (HLA-B*39:01): 0.0003 µM
- Kd (HLA-A*02:01 [2]): 0.0135 µM

Sequence: PAHKSQLVW
- Kd (HLA-A*11:01; [19]): ≥ 20 µM
- Kd (HLA-B*40:01 [3]; [19]): ≥ 20 µM
- Kd (HLA-B*07:02; [19]): ≥ 20 µM
- Kd (HLA-A*26:01; source organism: Influenza A virus(A/swine/Henan/8/2004(H9N2))): ≥ 20 µM
- Kd (HLA-A*24:02; [19]): ≥ 20 µM
- Kd (HLA-B*08:01; [19]): ≥ 20 µM
- Kd (HLA-B*15:01 [4]; [19]): ≥ 20 µM
- Kd (HLA-A*31:01; [19]): ≥ 20 µM
- Kd (HLA-A*02:01 [5]; [19]): ≥ 20 µM
- Kd (HLA-A*01:01 [6]; [19]): ≥ 20 µM
- Kd (HLA-B*18:01; [19]): ≥ 20 µM
- Kd (HLA-B*46:01; [19]): ≥ 20 µM
- Kd (HLA-B*15:09): ≥ 20 µM
- Kd (HLA-A*69:01; [19]): ≥ 20 µM
- Kd (HLA-B*44:02; [19]): ≥ 20 µM
- Kd (HLA-B*58:01 [7]; [19]): 2.21 µM
- Kd (HLA-B*27:05 [8]; [19]): ≥ 20 µM
- Kd (HLA-A*03:01; [19]): ≥ 20 µM

Sequence: FLPADFFPSV
- IC50 (HLA-A*02:01 [9]; source organism: Hepatitis B virus): 0.0012 µM

Sequence: ITDFHERPV
- IC50 (HLA-A*02:01 [10]; source organism: Variola virus): 5.75 µM
- IC50 (HLA-A*01:01 [11]; source organism: Variola virus): 6.25 µM

Sequence: VESKNFADF
- Kd (HLA-B*40:01 [1]; source organism: Bacillus cereus G9241): 0.418 µM

Sequence: YPKCDLVEL
- Kd (HLA-A*11:01; [20]): ≥ 20 µM
- Kd (HLA-B*40:01 [3]; [20]): ≥ 20 µM
- Kd (HLA-B*07:02; [20]): 0.224 µM
- Kd (HLA-A*26:01; [20]): ≥ 20 µM
- Kd (HLA-B*35:01 [12]; [20]): 0.00816 µM
- Kd (HLA-B*08:01; [20]): 0.54 µM
- Kd (HLA-B*15:01 [4]; [20]): ≥ 20 µM
- Kd (HLA-A*31:01; [20]): ≥ 20 µM
- Kd (HLA-A*02:01 [5]; [20]): ≥ 20 µM
- Kd (HLA-A*01:01 [6]; [20]): ≥ 20 µM
- Kd (HLA-A*69:01; [20]): 0.177 µM
- Kd (HLA-B*44:02; [20]): ≥ 20 µM
- Kd (HLA-B*58:01 [7]; [20]): ≥ 20 µM
- Kd (HLA-B*27:05 [8]; [20]): ≥ 20 µM
- Kd (HLA-A*03:01; [20]): ≥ 20 µM

Sequence: RLFFKCIYR
- Kd (HLA-B*40:01 [3]; [21]): ≥ 20 µM
- Kd (HLA-B*07:02; [21]): ≥ 20 µM
- Kd (HLA-B*08:02; source organism: Influenza A virus H3N2): ≥ 20 µM
- Kd (HLA-A*24:02; [21]): ≥ 20 µM
- Kd (HLA-B*08:01; [21]): ≥ 20 µM
- Kd (HLA-B*15:01 [4]; [21]): ≥ 20 µM
- Kd (HLA-A*02:01 [5]; [21]): ≥ 20 µM
- Kd (HLA-A*01:01 [6]; [21]): ≥ 20 µM
- Kd (HLA-B*18:01; [21]): ≥ 20 µM
- Kd (HLA-B*46:01; [21]): ≥ 20 µM
- Kd (HLA-B*44:02; [21]): ≥ 20 µM
- Kd (HLA-B*58:01 [7]; [21]): ≥ 20 µM
- Kd (HLA-B*27:05 [8]; [21]): ≥ 20 µM
- Kd (HLA-A*03:01; source organism: Influenza A virus (A/Puerto Rico/8/34/Mount Sinai(H1N1))): 0.146 µM

Sequence: NLKLYGAEF
- Kd (HLA-A*11:01; [22]): ≥ 20 µM
- Kd (HLA-B*40:01 [3]; [22]): ≥ 20 µM
- Kd (HLA-B*07:02; [22]): ≥ 20 µM
- Kd (HLA-A*26:01; [22]): ≥ 20 µM
- Kd (HLA-B*35:01 [12]; [22]): 0.281 µM
- Kd (HLA-B*08:01; [22]): 0.433 µM
- Kd (HLA-B*15:01 [4]; [22]): 0.133 µM
- Kd (HLA-A*31:01; [22]): ≥ 20 µM
- Kd (HLA-A*02:01 [5]; [22]): ≥ 20 µM
- Kd (HLA-A*01:01 [6]; [22]): ≥ 20 µM
- Kd (HLA-A*69:01; [22]): ≥ 20 µM
- Kd (HLA-B*44:02; [22]): ≥ 20 µM
- Kd (HLA-B*58:01 [7]; [22]): ≥ 20 µM
- Kd (HLA-B*27:05 [8]; [22]): ≥ 20 µM
- Kd (HLA-A*03:01; [22]): ≥ 20 µM
- Kd (HLA-A*24:03 [13]): 11.6 µM

Sequence: PSIATNLEY
- IC50 (HLA-B*15:01 [14]): 43.7 µM
- IC50 (HLA-A*01:01 [11]; source organism: Vaccinia virus): 15.2 µM

Sequence: IYPGVNHGF
- Kd (HLA-A*24:03 [15]): 0.0003 µM

Sequence: TTFPVNGGY
- Kd (HLA-A*11:01; [23]): 5.77 µM
- Kd (HLA-B*40:01 [3]; [24]): ≥ 20 µM
- Kd (HLA-B*07:02; [24]): ≥ 20 µM
- Kd (HLA-A*26:01; [23]): 0.0228 µM
- Kd (HLA-B*35:01 [12]; [23]): 0.097 µM
- Kd (HLA-B*08:01; [24]): ≥ 20 µM
- Kd (HLA-B*15:01 [4]; [23]): 0.165 µM
- Kd (HLA-A*31:01; [24]): ≥ 20 µM
- Kd (HLA-A*02:01 [5]; [24]): ≥ 20 µM
- Kd (HLA-A*01:01 [6]; [23]): 0.345 µM
- Kd (HLA-A*30:01): 16 µM
- Kd (HLA-A*69:01; [23]): 0.334 µM
- Kd (HLA-B*44:02; [24]): ≥ 20 µM
- Kd (HLA-B*58:01 [7]; [23]): ≥ 10 µM
- Kd (HLA-B*27:05 [8]; [24]): ≥ 20 µM
- Kd (HLA-A*03:01; [23]): 1.46 µM

Sequence: IWIKLSYLW
- Kd (HLA-A*24:02; source organism: Cryptosporidium parvum Iowa II): 0.01 µM

Sequence: RTLDKVLEV
- IC50 (HLA-A*02:01 [9]; source organism: Homo sapiens): 0.04 µM

Sequence: RQWFIDVPL
- Kd (HLA-B*48:01; source organism: dengue virus type 2): 0.0684 µM

Sequence: DYLTTYFTW
- Kd (HLA-A*24:02; source organism: Bacillus anthracis str. A0488): ≤ 0.001 µM

Sequence: NTSKSTDFL
- IC50 (HLA-A*02:01 [10]; [25]): ≥ 495 µM
- IC50 (HLA-A*01:01 [11]; [25]): ≥ 191 µM

Sequence: YRWVNLASF
- Kd (HLA-B*27:05 [16]): 0.0981 µM

Sequence: KAWSEGLAM
- Kd (HLA-B*35:01 [17]): 0.0002 µM
- Kd (HLA-B*58:01 [18]): 0.458 µM

Sequence: RALAYDPAL
- Kd (HLA-B*48:01; source organism: Burkholderia mallei SAVP1): 0.0808 µM

Sequence: VSSKKCTAL
- Kd (HLA-A*11:01; [26]): ≥ 20 µM
- Kd (HLA-B*40:01 [3]; [26]): ≥ 20 µM
- Kd (HLA-B*07:02; [26]): ≥ 20 µM
- Kd (HLA-A*26:01; [26]): ≥ 20 µM
- Kd (HLA-B*08:02; [26]): ≥ 20 µM
- Kd (HLA-A*24:02; [26]): ≥ 20 µM
- Kd (HLA-B*08:01; [26]): 17.7 µM
- Kd (HLA-B*15:01 [4]; [26]): ≥ 20 µM
- Kd (HLA-A*31:01; [26]): ≥ 20 µM
- Kd (HLA-A*02:01 [5]; [26]): ≥ 20 µM
- Kd (HLA-A*01:01 [6]; [26]): ≥ 20 µM
- Kd (HLA-B*18:01; [26]): ≥ 20 µM
- Kd (HLA-B*46:01; [26]): ≥ 20 µM
- Kd (HLA-A*69:01; [26]): ≥ 20 µM
- Kd (HLA-B*44:02; [26]): ≥ 20 µM
- Kd (HLA-B*58:01 [7]; [26]): ≥ 20 µM
- Kd (HLA-B*27:05 [8]; [26]): ≥ 20 µM
- Kd (HLA-A*03:01; [26]): ≥ 20 µM

Sequence: VTNDGVIFF
- Kd (HLA-A*26:01; source organism: Mycobacterium tuberculosis variant bovis): 1.09 µM
- Kd (HLA-C*15:02): ≥ 20 µM
- Kd (HLA-C*12:03): 0.319 µM
- Kd (HLA-C*05:01): 0.003 µM

Sequence: PTLDKVLEL
- IC50 (HLA-A*02:01 [9]; source organism: Homo sapiens): 10 µM

Sequence: RQGKPDWLL
- Kd (HLA-B*48:01; source organism: Vibrio vulnificus CMCP6): 0.124 µM
